From article PMC6934807, “Development of hypoallergenic variants of the major horse allergen Equ c 1 for immunotherapy by rational structure based engineering” (Scientific Reports, 2019)

T1: recombinant Equ c 1 wild type (Equ c 1.0101) (horse)
T1 chain: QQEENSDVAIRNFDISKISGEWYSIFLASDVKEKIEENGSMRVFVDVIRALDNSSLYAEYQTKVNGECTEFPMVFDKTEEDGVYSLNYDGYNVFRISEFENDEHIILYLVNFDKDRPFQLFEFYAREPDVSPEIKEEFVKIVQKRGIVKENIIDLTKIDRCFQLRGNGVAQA


Columns and labels:
[1] = target: the molecule itself; assay: cell-based or functional assay
[2] = target: the molecule itself; assay: native MS; native ESI FT-ICR MS at 40 µM protein, 10 mM ammonium acetate pH 6.9; Kd of Triple 3 estimated from monomer and dimer intensities at this single concentration; dimer to monomers
[3] = target: T1, recombinant Equ c 1 wild type (Equ c …); assay: SEC; SE-UHPLC, Acquity BEH125 SEC column, PBS (12 mM Na2HPO4, 3 mM NaH2PO4, 150 mM NaCl, pH 7.3), 2 µl of a 40 µM protein solution injected, compared with protein standards; settings: both partners purified
[4] = target: T1, recombinant Equ c 1 wild type (Equ c …); assay: native MS; native ESI FT-ICR MS, dilution series 0.1-4.8 µM (monomer) in 10 mM ammonium acetate, diluted samples kept four days at +4 °C, five parallel spectra per concentration; Kd from monomer and dimer ion intensities; dimer to monomers; settings: both partners purified

| Binder | EC50 of histamine release from stripped basophils passively sensitised with serum A of a horse allergic person [1] [nM] | EC50 of histamine release from stripped basophils passively sensitised with serum B of a horse allergic person [1] [nM] | EC50 of histamine release from stripped basophils passively sensitised with serum C of a horse allergic person [1] [nM] | EC50 of histamine release from stripped basophils passively sensitised with serum D of a horse allergic person [1] [nM] | EC50 of histamine release from stripped basophils passively sensitised with serum E of a horse allergic person [1] [nM] | EC50 of histamine release from stripped basophils passively sensitised with serum F (RefLab's positive control serum) [1] [nM] | EC50 of histamine release from stripped basophils, median of the six sera [1] [nM] | Kd [2] [nM] | stoichiometry N [3] | Kd [4] [nM] |
| --- | --- | --- | --- | --- | --- | --- | --- | --- | --- | --- |
| Equ c 1 Triple 2 (V47K + V110E + F112K) (natural protein) QQEENSDVAIRNFDISKISGEWYSIFLASDVKEKIEENGSMRVFVDKIRALDNSSLYAEYQTKVNGECTEFPMVFDKTEEDGVYSLNYDGYNVFRISEFENDEHIILYLENKDKDRPFQLFEFYAREPDVSPEIKEEFVKIVQKRGIVKENIIDLTKIDRCFQLRGNGVAQA | 0.11 | 0.24 | 0.22 | 0.18 | 0.84 | 0.72 | 0.23 |  |  |  |
| Equ c 1 Triple 3 (E21Y + V110E + F112K) (natural protein) QQEENSDVAIRNFDISKISGYWYSIFLASDVKEKIEENGSMRVFVDVIRALDNSSLYAEYQTKVNGECTEFPMVFDKTEEDGVYSLNYDGYNVFRISEFENDEHIILYLENKDKDRPFQLFEFYAREPDVSPEIKEEFVKIVQKRGIVKENIIDLTKIDRCFQLRGNGVAQA | 0.29 | 0.42 | 0.52 | 0.26 | 3.7 | 1.1 | 0.47 | ~800000 |  |  |
| recombinant Equ c 1 wild type (Equ c 1.0101) (natural protein, extra vector-derived N-terminal Ala left out; disulfide Cys68-Cys161 (mature numbering, precursor = +15); homodimer at micromolar concentration (Kd 15.6 nM) / extra vector-derived N-terminal Ala left) QQEENSDVAIRNFDISKISGEWYSIFLASDVKEKIEENGSMRVFVDVIRALDNSSLYAEYQTKVNGECTEFPMVFDKTEEDGVYSLNYDGYNVFRISEFENDEHIILYLVNFDKDRPFQLFEFYAREPDVSPEIKEEFVKIVQKRGIVKENIIDLTKIDRCFQLRGNGVAQA |  |  |  |  |  |  |  |  | 2 | 15.6 ± 0.8 |
